{
  "source": "paper doi:10.1101/2020.03.05.978833",
  "test_system": "FasR wild-type (His6, EMSA) (Mycobacterium tuberculosis H37Rv)",
  "experiment": "EMSA",
  "data": [
    {"substance": "PfasMT promoter fragment (398 bp)", "values": [
      {"measurement": "Kd", "result": 83, "unit": "nM"}
    ]}
  ]
}
